The term Kd denotes a measure of binding affinity in units of concentration. Read a low Kd as tighter binding.

This is an account of results in patent JP2023550785A (dated 2023).

In test [1] the target is T1, HCoV-HKU1 prefusion-stabilized spike (S) protein / S ectodomain trimer (human coronavirus HKU1, UniProt Q5MQD0 13-1300).
T1 sequence: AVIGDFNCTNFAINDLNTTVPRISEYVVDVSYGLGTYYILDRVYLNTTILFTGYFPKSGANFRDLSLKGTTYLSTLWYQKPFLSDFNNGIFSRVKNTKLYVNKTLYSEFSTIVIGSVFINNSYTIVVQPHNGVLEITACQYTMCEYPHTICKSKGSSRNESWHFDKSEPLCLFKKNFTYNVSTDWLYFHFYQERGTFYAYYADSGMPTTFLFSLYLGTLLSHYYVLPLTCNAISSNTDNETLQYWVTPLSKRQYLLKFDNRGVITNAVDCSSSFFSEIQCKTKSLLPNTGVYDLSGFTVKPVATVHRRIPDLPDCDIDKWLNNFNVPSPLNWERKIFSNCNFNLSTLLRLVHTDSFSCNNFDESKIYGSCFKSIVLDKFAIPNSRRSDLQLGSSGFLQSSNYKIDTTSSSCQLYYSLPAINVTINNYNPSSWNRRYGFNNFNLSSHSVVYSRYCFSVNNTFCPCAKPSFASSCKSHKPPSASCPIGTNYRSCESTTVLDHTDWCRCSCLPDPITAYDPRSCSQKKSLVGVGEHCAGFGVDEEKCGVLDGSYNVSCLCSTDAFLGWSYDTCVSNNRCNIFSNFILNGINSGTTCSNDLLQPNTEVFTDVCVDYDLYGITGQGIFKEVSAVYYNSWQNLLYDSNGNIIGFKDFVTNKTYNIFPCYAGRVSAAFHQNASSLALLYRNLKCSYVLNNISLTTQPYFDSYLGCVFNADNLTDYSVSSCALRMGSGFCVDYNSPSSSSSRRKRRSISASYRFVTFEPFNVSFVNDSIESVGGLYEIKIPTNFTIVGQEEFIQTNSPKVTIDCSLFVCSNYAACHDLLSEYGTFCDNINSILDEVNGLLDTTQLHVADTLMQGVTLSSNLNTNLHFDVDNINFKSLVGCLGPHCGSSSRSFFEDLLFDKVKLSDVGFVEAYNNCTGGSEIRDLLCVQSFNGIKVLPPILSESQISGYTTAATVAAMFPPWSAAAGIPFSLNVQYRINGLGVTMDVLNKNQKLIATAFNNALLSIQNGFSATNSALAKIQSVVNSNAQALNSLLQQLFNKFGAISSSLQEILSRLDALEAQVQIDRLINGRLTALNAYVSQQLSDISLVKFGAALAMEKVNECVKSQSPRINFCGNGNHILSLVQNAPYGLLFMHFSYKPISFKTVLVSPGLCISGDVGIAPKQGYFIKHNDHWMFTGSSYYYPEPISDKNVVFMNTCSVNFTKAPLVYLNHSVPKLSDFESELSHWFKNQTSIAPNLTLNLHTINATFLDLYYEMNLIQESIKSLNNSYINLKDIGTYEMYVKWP

The target of test [2] is SARS-CoV (Urbani strain) prefusion-stabilized spike (S) protein / S ectodomain trimer (SARS-CoV (Urbani strain), UniProt P59594 14-1195).
Test [3] deals with T2, spike protein of alphacoronavirus 229E-CoV (HCoV-229E, UniProt P15423 16-1115).
T2 sequence: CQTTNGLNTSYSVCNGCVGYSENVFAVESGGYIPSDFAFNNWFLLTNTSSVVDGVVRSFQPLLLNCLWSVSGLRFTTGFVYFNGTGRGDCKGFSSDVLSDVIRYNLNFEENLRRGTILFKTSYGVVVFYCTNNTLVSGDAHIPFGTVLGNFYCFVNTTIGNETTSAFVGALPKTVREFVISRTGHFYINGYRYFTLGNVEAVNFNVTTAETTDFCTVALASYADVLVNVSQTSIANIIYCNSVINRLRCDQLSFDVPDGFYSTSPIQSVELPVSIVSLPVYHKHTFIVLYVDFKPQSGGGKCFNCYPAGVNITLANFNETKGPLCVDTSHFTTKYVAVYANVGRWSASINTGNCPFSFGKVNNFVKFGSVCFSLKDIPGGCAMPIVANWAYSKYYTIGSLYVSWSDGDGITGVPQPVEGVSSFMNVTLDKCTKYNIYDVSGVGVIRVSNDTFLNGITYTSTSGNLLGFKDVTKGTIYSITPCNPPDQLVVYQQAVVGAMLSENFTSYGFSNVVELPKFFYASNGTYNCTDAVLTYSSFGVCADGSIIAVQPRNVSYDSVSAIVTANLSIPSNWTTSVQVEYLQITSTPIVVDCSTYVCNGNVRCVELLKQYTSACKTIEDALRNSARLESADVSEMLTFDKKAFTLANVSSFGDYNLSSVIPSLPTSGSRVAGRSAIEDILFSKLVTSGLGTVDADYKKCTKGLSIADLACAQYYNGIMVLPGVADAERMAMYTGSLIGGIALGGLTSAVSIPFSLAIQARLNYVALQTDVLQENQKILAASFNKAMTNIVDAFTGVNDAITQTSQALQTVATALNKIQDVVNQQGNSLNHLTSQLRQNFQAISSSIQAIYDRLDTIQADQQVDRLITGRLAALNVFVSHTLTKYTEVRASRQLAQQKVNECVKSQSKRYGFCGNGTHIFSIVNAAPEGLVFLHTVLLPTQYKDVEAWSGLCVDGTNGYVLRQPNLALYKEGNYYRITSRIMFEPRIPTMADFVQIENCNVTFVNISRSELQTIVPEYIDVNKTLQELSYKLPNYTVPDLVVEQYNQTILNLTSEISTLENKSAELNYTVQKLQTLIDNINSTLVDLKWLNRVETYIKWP
In words: ELISA on alphacoronavirus spike proteins (Fig 37). Background: An ELISA detects its analyte on a solid surface through an enzyme-linked reagent.

B1: antibody S2P6 (antibody 420 1 1), human monoclonal antibody expressed as recombinant human IgG1 (antibody, V domains shown)
VH: EVQLVQSGAEVKKPGASVKVSCKASGYTFTSQYMHWVRQAPGQGLEWIGIINPSGVHTSYAQKFQGRVTLTRDTSTSTLYMELSSLRSEDTAVYYCARGSPKGAFDYWGQGTLVTVSS
VL: not shown
In the case of B1, the Kd in test [1] is 2.44 nM; in test [2], less than 0.001 nM. In addition, in test [3], the binding result is reported as “no binding”.
